Drawing on patent publication US6368863, “Reagents and methods for modulating gene expression through RNA mimicry” (ISIS Pharmaceuticals Inc.), this text covers Kd for four molecules.

Common to all, as to details: protein: synthetic; tags: synthetic 39-mer peptide made by solid phase synthesis, UCSF Biotechnology Resource Core; label: 5'-32P; hairpin with bulge
Data set [1] has as its target T1, Tat39 (Tat3B; HIV Tat residues 48-86) (HIV-1, UniProt P04608 P04608:48-86).
T1 chain: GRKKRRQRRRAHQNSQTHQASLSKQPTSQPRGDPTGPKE
As to the kind of experiment: EMSA; 1:1 Kd; 2-3:1 Kd 200 nM; 10 mM Tris pH 7.5, 70 mM NaCl, 4 C.

For data set [2], the target named is T1, Tat39 (Tat3B; HIV Tat residues 48-86). As to the kind of experiment: EMSA; 1:1 Kd; Krel 1.
Data set [3] shares this target. As to the kind of experiment: EMSA; 1:1 Kd; 2-3:1 Kd 30 nM; Krel 4.
For data set [4] the target is unchanged. In words: EMSA; 50 pM oligo; 1:1 Kd; 2-3:1 Kd 8000-20000 nM; Krel 10.
The target is the same in data set [5]. In words: EMSA; 5 pM oligo; 1:1 Kd; Krel 4.

A value given as a limit tells only on which side of the number the result lay.

B1: TAR 59-mer (1-59) (ssRNA)
RNA: GGGUCUCUCUGGUUAGACCAGAUCUGAGCCUGGGAGCUCUCUGGCUAACUAGGGAACCC
B1 registered a Kd in data set [1] of 40 nM.

B2: 5-BrU TAR 59-mer (1-59) (ssRNA)
RNA: GGGUCUCUCUGGUUAGACCAGAUCUGAGCCUGGGAGCUCUCUGGCUAACUAGGGAACCC
modifications: 5-bromouridine in place of U
With B2, the dissociation constant (Kd) in data set [2] is 40 nM.

B3: A:P=S TAR 59-mer (1-59) (ssRNA)
RNA: GGGUCUCUCUGGUUAGACCAGAUCUGAGCCUGGGAGCUCUCUGGCUAACUAGGGAACCC
modifications: PS linkages at A residues
For B3, the Kd in data set [3] is < 10 nM.

In the case of GCCAGAUCUGAGCCUGGGAGCUCUCUGGC (XNA, 2'-OMe, PS) [2'-OMe, P=S delta-TAR #2195 29-mer (16-45(-A17))], the Kd in data set [4] was 4 nM; in data set [5], < 10 nM.
